Reference: patent EP0832971B1
Where “and” joins values, the source holds several entries; their conditions need not be identical. Equal values may be shown once.

Experiments:
[1] = biological target: HIV-1 strain HTLV-IIIB (virus grown in H9 cells; envelope glycoprotein gp120 on the virus) (HIV-1 strain HTLV-IIIB) (UniProt P04578); assay: cell-based or functional assay
[2] = biological target: gp120, the major envelope glycoprotein of HIV-I (radioiodinated 125I-gp120; unlabeled purified gp120) (HIV-1); assay: saturation binding of 125I-gp120 in solution, immunoprecipitation with OKT4, Scatchard analysis

CD4T (product of pRKCD4T: CD4 fused after residue 368 of mature CD4 to 9 residues coded by pBR322) (from UniProt P01730 26-393) (receptor)
Indirect immunofluorescence (% positive cells), 1:4 inhibitor supernatant (% positive cells) [1]: 18 and 16.1
Indirect immunofluorescence (% positive cells), undil. inhibitor supernatant (% positive cells) [1]: 0.4 and 0.8
Reverse transcriptase (cpm/ml x 10^5), 1:4 inhibitor supernatant [1]: 594000 cpm/ml and 372000 cpm/ml
Reverse transcriptase (cpm/ml x 10^5), undil. inhibitor supernatant [1]: 11000 cpm/ml and 15000 cpm/ml
Kd [2]: 830 pM

gDCD4T (first 27 residues of mature HSV type I gD glycoprotein fused to mature CD4T; product of pRKGDCD4T) (from UniProt Q69091 1-27; P01730 1-368) (receptor)
Indirect immunofluorescence (% positive cells), 1:4 inhibitor supernatant (% positive cells) [1]: 26.8 and 36.1
Reverse transcriptase (cpm/ml x 10^5), 1:4 inhibitor supernatant [1]: 992000 cpm/ml and 1.13e+06 cpm/ml
Reverse transcriptase (cpm/ml x 10^5), undil. inhibitor supernatant [1]: 14000 cpm/ml and 23000 cpm/ml
Kd [2]: 720 pM
